In patent publication US20240148878A1, “THERAPEUTIC POLY-ADP-RIBOSE POLYMER-GCSF CONJUGATES” (UNIVERSITY OF SOUTHERN CALIFORNIA, priority 2022, published 2024):

T1: GCSF receptor on mouse NFS-60 cells (mouse (NFS-60 cells)) (UniProt P40223)
T1 sequence (looked up): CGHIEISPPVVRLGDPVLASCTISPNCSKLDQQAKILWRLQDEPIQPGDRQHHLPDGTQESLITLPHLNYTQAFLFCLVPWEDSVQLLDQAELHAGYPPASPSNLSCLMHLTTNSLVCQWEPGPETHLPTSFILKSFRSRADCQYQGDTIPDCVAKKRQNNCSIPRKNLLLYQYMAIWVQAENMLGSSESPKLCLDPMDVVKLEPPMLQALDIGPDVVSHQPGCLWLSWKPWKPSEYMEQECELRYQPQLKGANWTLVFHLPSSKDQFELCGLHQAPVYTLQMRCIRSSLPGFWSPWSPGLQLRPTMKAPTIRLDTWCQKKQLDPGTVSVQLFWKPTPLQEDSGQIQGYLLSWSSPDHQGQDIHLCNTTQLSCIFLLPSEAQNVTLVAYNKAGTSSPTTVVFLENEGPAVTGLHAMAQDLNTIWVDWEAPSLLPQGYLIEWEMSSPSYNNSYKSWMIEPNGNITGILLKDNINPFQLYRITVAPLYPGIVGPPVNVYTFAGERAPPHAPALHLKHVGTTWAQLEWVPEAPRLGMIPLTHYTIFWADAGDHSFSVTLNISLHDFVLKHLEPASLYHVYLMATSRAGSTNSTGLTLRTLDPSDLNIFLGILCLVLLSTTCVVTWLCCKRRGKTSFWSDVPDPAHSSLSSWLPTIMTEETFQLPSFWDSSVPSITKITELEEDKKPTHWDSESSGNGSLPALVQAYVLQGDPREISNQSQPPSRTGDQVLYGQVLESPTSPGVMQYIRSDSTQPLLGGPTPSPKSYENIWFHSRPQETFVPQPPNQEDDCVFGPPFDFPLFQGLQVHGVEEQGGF


Columns and labels:
[1] = molecular target: T1, GCSF receptor on mouse NFS-60 cells (mouse (NFS-60 cells)); test: cell-based or functional assay
[2] = molecular target: anti-GCSF monoclonal antibody (clone: BVD13-3A5, BioLegend); test: sandwich ELISA, BVD13-3A5 coated, detection anti-GCSF 3D1-HRP; analyte 125 ng/mL, replicate #1
[3] = molecular target: anti-GCSF monoclonal antibody (clone: BVD13-3A5, BioLegend); test: sandwich ELISA, BVD13-3A5 coated, detection anti-GCSF 3D1-HRP; analyte 125 ng/mL, replicate #2
[4] = molecular target: anti-GCSF monoclonal antibody (clone: BVD13-3A5, BioLegend); test: sandwich ELISA, BVD13-3A5 coated, detection anti-GCSF 3D1-HRP; analyte 250 ng/mL, replicate #1
[5] = molecular target: anti-GCSF monoclonal antibody (clone: BVD13-3A5, BioLegend); test: sandwich ELISA, BVD13-3A5 coated, detection anti-GCSF 3D1-HRP; analyte 250 ng/mL, replicate #2
[6] = molecular target: anti-GCSF monoclonal antibody (clone: BVD13-3A5, BioLegend); test: sandwich ELISA, BVD13-3A5 coated, detection anti-GCSF 3D1-HRP; analyte 500 ng/mL, replicate #1
[7] = molecular target: anti-GCSF monoclonal antibody (clone: BVD13-3A5, BioLegend); test: sandwich ELISA, BVD13-3A5 coated, detection anti-GCSF 3D1-HRP; analyte 500 ng/mL, replicate #2
[8] = molecular target: anti-GCSF monoclonal antibody (clone: BVD13-3A5, BioLegend); test: sandwich ELISA, BVD13-3A5 coated, detection anti-GCSF 3D1-HRP; analyte 62.5 ng/mL, replicate #1
[9] = molecular target: anti-GCSF monoclonal antibody (clone: BVD13-3A5, BioLegend); test: sandwich ELISA, BVD13-3A5 coated, detection anti-GCSF 3D1-HRP; analyte 62.5 ng/mL, replicate #2
[10] = molecular target: anti-GCSF monoclonal antibody (clone: BVD13-3A5, BioLegend); test: sandwich ELISA, BVD13-3A5 coated, detection anti-GCSF 3D1-HRP; analyte 31.25 ng/mL, replicate #1
[11] = molecular target: anti-GCSF monoclonal antibody (clone: BVD13-3A5, BioLegend); test: sandwich ELISA, BVD13-3A5 coated, detection anti-GCSF 3D1-HRP; analyte 31.25 ng/mL, replicate #2
mouse NFS-60 cells = test: In vitro proliferation assay (MTT); type: cell-based; details: for EC50: NFS-60 cells, 72 hours, MTT, read-out: EC50 of stimulatory (proliferative) activity
Experimental: FIG. 3 illustrates the PARylated PARP1-GCSF conjugate stimulates proliferation of mouse NFS-60 cells in a dose-dependent manner. Cells were treated with various concentrations of PARylated PARP1, PARylated PARP1-GCSF conjugate, and human GCSF for 72 hours. Cell viabilities were quantified using MTT assays.
Cell lines. Mouse NFS-60 cells were grown in RPMI 1640 medium containing 10% FBS, 0.05 mM 2-mercaptoethanol and 62 ng/mL human recombinant macrophage colony stimulating factor (M-CSF). Expi293F cells were purchased from Thermo Fisher Scientific and cultured in Expi293F expression medium with shaking at a speed of 125 rpm at 37° C. and 8% CO2.
In vitro proliferation assays. Mouse NFS-60 cells were cultured in RPMI 1640 medium containing 10% FBS, 0.05 mM 2-mercapoethanol and 62 ng/ml human recombinant M-CSF. To examine the proliferative activity of PARylated PARP1-GCSF conjugate, cells were washed three times with DPBS buffer, resuspended in RPMI-1640 medium with 10% FBS and 0.05 mM 2-mercapoethanol, plated in 96-well plates (1.5×10^4 cells per well) with various concentrations of GCSF, PARylated PARP1, or PARylated PARP1-hG-CSF conjugate, and incubated for 72 hours at 37° C. with 5% CO2. Cells were then treated with 0.5 mg mL^−1 3-(4,5-dimethylthiazol-2-yl)-2,5-diphenyltetrazolium bromide (MTT) solution for 3 hours at 37° C., followed by additions of 100 μL of lysis buffer (20% SDS in 50% dimethylformamide, 0.5% (v:v) 80% acetic acid, 0.4% (v:v) 1 N HCl, pH 4.7) and incubated for 4 hours at 37° C. Fluorescence intensity measured at 595 nm is proportional to cell viability.

[12] = system: neutrophil populations in blood; test: In vivo efficacy: neutrophil populations in blood by flow cytometry after single s.c. dose; set-up: species or system CD1 mice; details: for neutrophil percentage reached after sharp increase: within 24 hours, from approximately 10%
Excerpt: FIG. 4A-C illustrates in vivo efficacy of the PARylated PARP1-GCSF conjugate. Single doses of GCSF (1.25 nmol), PARylated PARP1 (2.5 nmol) and PARylated PARP1-GCSF conjugate (0.5 or 2.5 nmol) were administrated by subcutaneous (s.c.) injections into CD1 mice (five per group). Blood was collected and analyzed for neutrophil populations by flow cytometry using fluorophore-labeled anti-mouse CD45, anti-mouse CD11b, and anti-mouse Ly-6G antibodies. (A)-(B) Neutrophil percentages in mouse blood after the single-dose treatments. For (B), 1=PBS; 2=GCSF 1.25 nmol; 3=PARylated PARP1 2.5 nmol; 4=PARylated PARP1-GCSF 0.5 nmol; 5=PARylated PARP1-GCSF 2.5 nmol. (C) Representative flow cytometric analyses of mouse neutrophil populations after treatments with 1) PBS; 2) GCSF 1.25 nmol; 3) PARylated PARP1 2.5 nmol; 4) PARylated PARP1-GCSF 0.5 nmol; and 5) PARylated PARP1-GCSF 2.5 nmol conjugate. ns=not significant, p>0.05; *, p<0.05; **, p<0.01; ***, p<0.001; ****, p<0.0001. Data for the 5 conjugates are listed for days 0, 1, 5, and 11.
Animals. Female CD-1 IGS mice (22-24 g) were purchased from Charles River Laboratories (Wilmington, MA). All animal studies were performed under a protocol approved by the Institutional Animal Care and Use Committee of the University of Southern California.
In vivo efficacy of the PARylated PARP1-GCSF conjugate. Single doses of GCSF (1.25 nmol), PARylated PARP1 (2.5 nmol), or PARylated PARP1-GCSF conjugate (0.5 or 2.5 nmol) were administrated by subcutaneous (s.c.) injections into CD1 mice (5 per group). Blood was collected at day 0 through day 13 and analyzed by flow cytometry to measure percentages of neutrophil populations in white blood cells using pacific blue anti-mouse CD45 (clone: 30-F11, BioLegend), APC anti-mouse CD11b (clone: M1/70, eBioscence, Carlsbad, CA), and FITC anti-mouse Ly-6G antibodies (clone: 1A8, BioLegend).

Row | EC50, proliferation of mouse NFS-60 cells (MTT, 72 hours) [1] [nM] | fold potency against free GCSF, proliferation of mouse NFS-60 cells [1] [fold] | Fluorescence Intensity [2] | Fluorescence Intensity [3] | Fluorescence Intensity [4] | Fluorescence Intensity [5] | Fluorescence Intensity [6] | Fluorescence Intensity [7] | Fluorescence Intensity [8] | Fluorescence Intensity [9] | Fluorescence Intensity [10] | Fluorescence Intensity [11] | Molecule | EC50 (mouse NFS-60 cells) [nM] | fold increased potency versus recombinant human GCSF (mouse NFS-60 cells; ratio of EC50, NFS-60 cells) | duration of sustained elevated levels of neutrophil ([12]; conjugate 2.5 nmol) [days] | neutrophil-stimulating activity compared with 1.25 nmol GCSF ([12]; conjugate at a dose of 0.5 nmol) | neutrophil percentage reached after sharp increase [12] [%]
1 | 0.00602 | 4 | 32100 | 44700 | 49400 | 49200 | 64500 | 64900 | 22800 | 20700 | 15900 | 15900 | PARylated PARP1-GCSF conjugate (from UniProt P09874 1-1014) |  |  |  |  | 
2 |  |  |  |  |  |  |  |  |  |  |  |  | PARylated PARP1-GCSF conjugate: Auto-PARylated human PARP1 (3′-azido NAD+-derived PAR polymers) click-conjugated with alkyne-functionalized human GCSF, 14.0±0.5 GCSF molecules on average | 0.00602 ± 0.00093 | approximately 4 fold | 11 | comparable | ~50
3 | 0.0248 |  | 42300 | 42700 | 62200 | 60700 | 75700 | 76500 | 29400 | 29800 | 19900 | 20700 | Recombinant human granulocyte colony-stimulating factor (GCSF) with His6 tag, expressed in Expi293F cells (from UniProt P09919 31-207) (ligand) |  |  |  |  | 
4 |  |  |  |  |  |  |  |  |  |  |  |  | GCSF: Recombinant human granulocyte colony-stimulating factor (His6) expressed in Expi293F cells (protein) TPLGPASSLPQSFLLKCLEQVRKIQGDGAALQEKLVSECATYKLCHPEELVLLGHSLGIPWAPLSSCPSQALQLAGCLSQLHSGLFLYQGLLQALEGISPELGPTLDTLQLDVADFATTIWQQMEELGMAPALQPTQGAMPAFASAFQRRAGGVLVASHLQSFLEVSYRVLRHLAQPHHHHHH | 0.0248 ± 0.00321 |  |  |  | ~50
